From paper PMC6542541, “Broadly neutralizing antibodies from an individual that naturally cleared multiple hepatitis C virus infections uncover molecular determinants for E2 targeting and vaccine design” (PLoS Pathogens, 2019) come the findings set out here.

Test [1] has as its target H77C 1a recombinant E1E2 (hepatitis C virus genotype 1a, isolate H77C) (UniProt P27958).
For test [2] the target is unchanged. This is another data set of the same source.
The target in the next test is HMAb CBH-7. Briefly: global alanine scanning epitope mapping. The settings on record: antibody at 1 μg/ml.
A further test has as its target HC-1. In words: global alanine scanning epitope mapping. The settings on record: antibody at 1 μg/ml.
The target of a further test is HMAb HC-11. In words: global alanine scanning epitope mapping. The settings on record: antibody at 1 μg/ml.
For a further test, the target named is HC84.26. Briefly: global alanine scanning epitope mapping. The settings on record: antibody at 1 μg/ml.
Another test deals with HMAb 212.1.1. Briefly: global alanine scanning epitope mapping. Conditions: antibody at 2 μg/ml.
The next test deals with HMAb CBH-5. Briefly: global alanine scanning epitope mapping. The settings on record: antibody at 1 μg/ml.
For test [3], the target named is T1, complex of Hepatitis C virus genotype 1a P27958 (hepatitis C virus genotype 1a, isolate …, UniProt P27958).
T1 construct: envelope glycoprotein E1, cut product of the HCV polyprotein, genotype 1a isolate H77C; envelope glycoprotein E2, cut product of the HCV polyprotein, genotype 1a isolate H77C; residue numbers count on the H77C polyprotein; also called wt 1a H77C E1E2; 1a H77C E2
Briefly: ELISA; blocking of E2 binding to CD81-LEL: HMAb at 10 μg/ml pre-incubated with H77C 1a E1E2 lysate (1 μg/ml E2) for 20 min at 4°C, then added to CD81-LEL wells. The settings on record: one partner purified. For orientation: ELISA stands for enzyme-linked immunosorbent assay.

As to HMAb 212.1.1 (antibody), the % neutralization of 1a H77C HCVpp at 20 μg/ml in test [1] is 89%. Also, in test [2], the % neutralization of H77 (1a) Core-NS2 HCVcc at 25 μg/ml (FFU reduction) is 41% and the IC50 of neutralization of H77 (1a) Core-NS2 HCVcc (FFU reduction) came to 36 µg/mL.
Take “H77C 1a recombinant E1E2 (from UniProt P27958) N428A”: the percent of parent with HMAb CBH-7 stood at 134 % WT; in the test with HC-1, 34 % WT; with HMAb HC-11, 7 % WT; with HC84.26, 74 % WT; in the test with HMAb 212.1.1 it was 15 % WT; with HMAb CBH-5, 0 % WT.
As to “H77C 1a recombinant E1E2 (from UniProt P27958) A426G”, the percent of parent with HMAb CBH-7 was 253 % WT; in the test with HC-1, 35 % WT; with HMAb HC-11, 23 % WT; with HC84.26, 88 % WT; with HMAb 212.1.1, 8 % WT; with HMAb CBH-5, 0 % WT.
For the molecule “H77C 1a recombinant E1E2 (from UniProt P27958) Y443A”, the percent of parent is 82 % WT with HMAb CBH-7; 87 % WT in the test with HC-1; 1 % WT with HMAb HC-11; 52 % WT with HC84.26; 158 % WT with HMAb 212.1.1; 0 % WT with HMAb CBH-5.
Take “H77C 1a recombinant E1E2 (from UniProt P27958) T534A”: the percent of parent turned out to be 101 % WT with HMAb CBH-7; 88 % WT in the test with HC-1; 83 % WT with HMAb HC-11; 116 % WT with HC84.26; 162 % WT in the test with HMAb 212.1.1; 125 % WT in the test with HMAb CBH-5.
Regarding “H77C 1a recombinant E1E2 (from UniProt P27958) N532A”, the percent of parent in the test with HMAb CBH-7 was 101 % WT; with HC-1, 82 % WT; with HMAb HC-11 it was 71 % WT; with HC84.26, 108 % WT; with HMAb 212.1.1, 152 % WT; with HMAb CBH-5 it was 108 % WT.
As for “H77C 1a recombinant E1E2 (from UniProt P27958) T435A”, the percent of parent with HMAb CBH-7 worked out at 89 % WT; with HC-1 it was 67 % WT; with HMAb HC-11, 49 % WT; with HC84.26 it was 117 % WT; with HMAb 212.1.1, 86 % WT; with HMAb CBH-5, 46 % WT.
Turning to “H77C 1a recombinant E1E2 (from UniProt P27958) L438A”, the percent of parent was determined as 89 % WT with HMAb CBH-7; 77 % WT in the test with HC-1; 1 % WT with HMAb HC-11; 122 % WT in the test with HC84.26; 87 % WT with HMAb 212.1.1; 4 % WT in the test with HMAb CBH-5.
“H77C 1a recombinant E1E2 (from UniProt P27958) H638A”: the percent of parent with HMAb CBH-7 came to 42 % WT; with HC-1, 47 % WT; with HMAb HC-11 it was 27 % WT; with HC84.26, 34 % WT; in the test with HMAb 212.1.1 it was 26 % WT; with HMAb CBH-5, 6 % WT.
Take “H77C 1a recombinant E1E2 (from UniProt P27958) L427A”: the percent of parent stood at 370 % WT with HMAb CBH-7; 51 % WT in the test with HC-1; 26 % WT with HMAb HC-11; 100 % WT with HC84.26; 3 % WT with HMAb 212.1.1; 6 % WT in the test with HMAb CBH-5.
Consider “H77C 1a recombinant E1E2 (from UniProt P27958) L546A”, for which the percent of parent was found to be 112 % WT with HMAb CBH-7; 100 % WT with HC-1; 92 % WT with HMAb HC-11; 100 % WT with HC84.26; 139 % WT with HMAb 212.1.1; 92 % WT with HMAb CBH-5.
“H77C 1a recombinant E1E2 (from UniProt P27958) L433A”: the percent of parent worked out at 103 % WT with HMAb CBH-7; 97 % WT with HC-1; 103 % WT with HMAb HC-11; 122 % WT in the test with HC84.26; 2 % WT with HMAb 212.1.1; 128 % WT with HMAb CBH-5.

B1: HMAb HC-11 (antibody, V domains shown)
VH: EVQLVESGAEVKKPGSSVKVSCKASGATFSSFIFSWVRQAPGQGPEWMGGIIPMFGTAKYAPRLQGRVTITADESTSTAYMDLSSLRFEDTAVYYCAMEVPGFCRGGSCSGYMDVWGKGTLVTVSP
VL: AAVLTQSPGTLSLSPGERATLSCRASHSVSSSNLAWYQQKPGQAPRLLMYGASRRATGIPDRFSGSGSGTDFTLTISRLEPEDFAVYYCQQYGSSPITFGQGTRLDIK
notes: germline IGHV1-69, 92% nucleotide identity; heavy chain CDR3; germline kappa 3-20, 96% nucleotide identity; light chain CDR3; also called domain B HMAb
As for B1, in test [3], the binding result is given as “binds”.
